{
  "source": "paper PMC3815138",
  "about": "“Dynamic Interplay between the Periplasmic and Transmembrane Domains of GspL and GspM in the Type II Secretion System” (PLoS ONE, 2013)",
  "binders": {"B1": {"name": "His-OutC (natural protein)", "chain": "not shown", "notes": "OutC (GspC), bitopic inner membrane component of the type II secretion system of Dickeya dadantii; also called GspC; full-length OutC; source: E. coli BL21(DE3), pET20b(+) plasmid"}},
  "key": {"GST-OutC": {"target": "T1, GST-OutC (Dickeya dadantii, UniProt Q01564 1-272)", "T1 construct": "OutC (GspC), type II secretion system of Dickeya dadantii; also called full-length OutC carrying a GST-tag; source: E. coli BL21(DE3), pGEX-6P-3 plasmid; immobilized on Glutathione Sepharose", "test": "pull-down; GST-Out derivatives immobilized on Glutathione Sepharose as baits; His-OutC purified by nickel affinity as prey, incubated 1 h; 1% Triton X-100, 15°C; five washes; immunoblot", "conditions": "both partners purified"}, "GST-OutL": {"target": "T2, GST-OutL (Dickeya dadantii, UniProt E0SLF6 1-400)", "T2 construct": "OutL (GspL), type II secretion system of Dickeya dadantii; also called full-length OutL carrying a GST-tag; source: E. coli BL21(DE3), pGEX-6P-3 plasmid; immobilized on Glutathione Sepharose", "T2 sequence": "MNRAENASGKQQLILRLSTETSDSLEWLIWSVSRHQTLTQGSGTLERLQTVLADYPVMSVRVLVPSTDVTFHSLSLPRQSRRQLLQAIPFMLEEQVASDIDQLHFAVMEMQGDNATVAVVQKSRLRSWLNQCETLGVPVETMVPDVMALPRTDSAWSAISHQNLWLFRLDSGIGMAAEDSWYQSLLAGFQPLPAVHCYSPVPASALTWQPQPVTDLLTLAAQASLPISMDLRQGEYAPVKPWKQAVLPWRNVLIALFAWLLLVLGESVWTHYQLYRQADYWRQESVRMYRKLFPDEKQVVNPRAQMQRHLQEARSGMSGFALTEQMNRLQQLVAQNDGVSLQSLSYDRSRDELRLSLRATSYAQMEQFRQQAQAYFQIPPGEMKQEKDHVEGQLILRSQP", "test": "pull-down; GST-Out derivatives immobilized on Glutathione Sepharose as baits; His-OutC purified by nickel affinity as prey, incubated 1 h; 1% Triton X-100, 15°C; five washes; immunoblot", "conditions": "both partners purified"}},
  "data": [
    {"binder": "B1", "values": [
      {"measurement": "binding result", "setting": "GST-OutC", "result": "binds"},
      {"measurement": "binding result", "setting": "GST-OutL", "result": "binds"}
    ]}
  ]
}
